# Test results from patent publication US8013125B2, “Metalloproteinase 9 and metalloproteinase 2 binding proteins” (Dyax Corp., priority 2008, dated 2011).
# “Also recorded” adds a separate entry of the source.
# B1: M0166-F10: inhibitory MMP-9 binding antibody (hMMP-9 antibody inhibitor) (antibody, V domains shown)
# VL: QSELTQPPSASAAPGQRVTISCSGSSSNIGSNTVTWYQKLPGTAPKLLIYNNYERPSGVPARFSGSKSGTSASLAISGLQSEDEADYYCATWDDSLIANYVFGSGTKVTVLGQPKANP
# VH: EVQLLESGGGLVQPGGSLRLSCAASGFTFSPYLMNWVRQAPGKGLEWVSSIYSSGGGTGYADSVKGRFTISRDNSKNTLYLQMNSLRAEDTAVYYCARIYHSSSGPFYGMDVWGQGTTVTVSSASTKGPSVFPLAPSSKS
# B2: M0237-D02: MMP-9/-2 dual reactive antibody inhibitor (parental); used as hIgG1 and Fab; VL/VH sequences in Example 7 (antibody, V domains shown)
# VL: QDIQMTQSPATLSLSPGERATLSCRASQSISSFLAWYQQKPGQAPRLLIYDASYRATGIPARFSGSGSGTDFTLTISSLEPEDYAVYYCQQRGNWPITFGQGTRLEIKRTVAAPS
# VH: EVQLLESGGGLVQPGGSLRLSCAASGFTFSQYPMWWVRQAPGKGLEWVSYIVPSGGRTYYADSVKGRFTISRDNSKNTLYLQMNSLRAEDTAVYYCAKDRAYGDYVGWNGFDYWGQGTLVTVSSASTKGPSVFPLAPSSKS
# Legend:
# [1] = biological target: T1, human pro-MMP-9 (Homo sapiens, UniProt P14780); assay: Biacore binding of analyte to coated antibody; details: Direct capture, 25° C.
# T1 construct: the human pro-MMP-9 (R&D, 911-MP); purchased R&D 911-MP
# T1 sequence (P14780 20-707 limits assumed): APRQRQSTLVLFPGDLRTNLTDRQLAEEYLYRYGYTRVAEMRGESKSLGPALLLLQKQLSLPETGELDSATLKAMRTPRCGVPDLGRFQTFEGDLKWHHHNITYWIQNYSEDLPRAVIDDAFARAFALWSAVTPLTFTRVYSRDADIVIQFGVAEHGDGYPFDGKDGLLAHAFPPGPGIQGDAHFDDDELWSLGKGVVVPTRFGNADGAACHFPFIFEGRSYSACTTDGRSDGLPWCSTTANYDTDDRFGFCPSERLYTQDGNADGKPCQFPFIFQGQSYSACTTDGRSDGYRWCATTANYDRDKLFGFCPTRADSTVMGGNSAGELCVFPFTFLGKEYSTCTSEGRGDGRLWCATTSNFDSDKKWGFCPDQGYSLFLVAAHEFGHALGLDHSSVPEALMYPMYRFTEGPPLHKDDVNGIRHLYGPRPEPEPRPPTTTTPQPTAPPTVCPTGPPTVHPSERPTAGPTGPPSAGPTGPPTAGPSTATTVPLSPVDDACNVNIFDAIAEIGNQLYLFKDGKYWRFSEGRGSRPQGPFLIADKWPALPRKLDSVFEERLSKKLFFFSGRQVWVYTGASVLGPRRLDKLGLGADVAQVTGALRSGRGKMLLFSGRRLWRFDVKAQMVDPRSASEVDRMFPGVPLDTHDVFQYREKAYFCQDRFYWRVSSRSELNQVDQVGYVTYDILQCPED
# Method: (§1) The non competitive inhibition model implies that the ternary complex enzyme-substrate-inhibitor can form. It is however possible that this complex cannot form with bigger substrates, in which case the antibody would behave as a competitive inhibitor. In order to address this issue, the ability of M0237-D02 antibody to bind to the h-MMP-9 when the enzyme is complexed to its natural inhibitor h-TIMP-1 was determined. The reasoning is that if the antibody cannot bind to the h-MMP-9/h-TIMP-1 complex, it would probably behave as a competitive inhibitor of this enzyme in the presence of bigger substrates.
# (§2) Experiments were performed at 25° C. with the help of a Biacore 3000 instrument. The MMP-9 binding protein (M0166F10) and the M0237-D02 antibody were coated to a CM5 chip either via standard amine coupling or using an anti-Fc antibody surface. Then either the active, human MMP-9 catalytic domain (BIOMOL, SE-244), the human pro-MMP-9 (R&D, 911-MP), the human TIMP-1 (R&D, 970-TM) or a h-MMP-9/h-TIMP-1 complex were flowed over the antibody surfaces, and binding was recorded.
# [2] = biological target: T2, human TIMP-1 (Homo sapiens, UniProt P01033); assay: Biacore binding of analyte to coated antibody; details: Direct capture; 25° C.
# T2 construct: purchased R&D 970-TM
# T2 sequence (P01033 24-207): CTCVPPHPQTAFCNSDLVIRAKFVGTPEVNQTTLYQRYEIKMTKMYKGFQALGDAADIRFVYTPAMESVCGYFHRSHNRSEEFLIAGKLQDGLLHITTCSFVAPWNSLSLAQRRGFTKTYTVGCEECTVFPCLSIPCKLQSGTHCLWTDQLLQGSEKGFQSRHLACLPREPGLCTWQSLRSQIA
# Method: as §1, §2
# [3] = biological target: T3, Human MMP-9 catalytic domain (Homo sapiens, UniProt P14780); assay: Biacore binding of analyte to coated antibody; details: 25° C.
# T3 construct: Human MMP-9 catalytic domain (BIOMOL, SE-244); purchased BIOMOL SE-244
# T3 sequence (P14780 107-449 limits assumed): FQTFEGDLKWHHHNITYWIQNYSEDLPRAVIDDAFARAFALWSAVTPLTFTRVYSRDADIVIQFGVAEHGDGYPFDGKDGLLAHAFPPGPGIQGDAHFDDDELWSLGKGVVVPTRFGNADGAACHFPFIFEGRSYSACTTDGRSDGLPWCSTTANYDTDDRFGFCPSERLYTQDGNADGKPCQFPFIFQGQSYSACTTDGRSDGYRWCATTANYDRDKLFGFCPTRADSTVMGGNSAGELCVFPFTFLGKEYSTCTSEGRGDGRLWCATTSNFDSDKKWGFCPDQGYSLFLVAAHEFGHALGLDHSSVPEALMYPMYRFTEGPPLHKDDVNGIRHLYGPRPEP
# Method: as §1, §2
# [4] = biological target: h-MMP-9/h-TIMP-1 complex (Homo sapiens, UniProt P14780); assay: Biacore binding of analyte to coated antibody; details: 25° C.
# h-MMP-9/h-TIMP-1 complex, sequence (P14780 107-449 limits assumed): as above
# h-MMP-9/h-TIMP-1 complex, sequence (P01033 24-207 partner): as the sequence (P01033 24-207) above
# Method: as §1, §2
# [5] = system: collagen-induced arthritis (CIA) mice; assay: Collagen-induced arthritis (CIA) mice; type: in vivo, mouse; details: CIA model, compared to untreated mice; FIG. 3
# Description: (§3) The purpose of the following experiments were to determine the effect of 539A-M0237-D02 on inflammation and specifically on inflammatory cell infiltration into the carrageenan-stimulated mouse air pouch and on the arthritic index in collagen-induced arthritis (CIA) mice.
# The collagen-induced arthritis (CIA) was produced by the immunization of susceptible strains of mice with native type II collagen. The collagen was emulsified in Freund's complete adjuvant and injected subcutaneously. A booster injection of collagen in incomplete adjuvant was given IP 21 days after the initial immunization. The disease is due to an auto-immune response induced upon immunization with collagen.
# The effect 539A-M0237-D02 on the arthritic index was compared to administration of methotrexate (MTX).
# [6] = system: inflammatory cell infiltration into the carrageenan-stimulated mouse air pouch; assay: Carrageenan-stimulated mouse air pouch model; type: in vivo; details: FIG. 2
# Description: as §3
# For the carrageenan-stimulated mouse air pouch model, subcutaneous injection of air into the hind flank or back of mice produces an air pouch in a week, the interior surface of which contains both fibroblast-like and macrophage-like cells. Inflammatory stimulation of the pouch results in leukocyte recruitment to the pouch and release of mediators (cytokines) into the exudate. Preventing inflammatory cell infiltration into the air pouch may translate into preventing inflammation of the synovium in rheumatoid arthritis.
# The effect of 539A-M0237-D02 on inflammatory cell infiltration was compared to inflammatory cell infiltration indomethacin and a control (PBS). In addition, inflammatory cell recruitment was compared to an unstimulated mouse.
# [7] = biological target: T4, Mouse MMP-9 (Mus musculus, UniProt P41245); assay: Ki determination with fluorogenic peptide substrate; type: biochemical; details: fluorogenic peptide substrates
# T4 construct: purchased R&D 909-MM
# T4 sequence (P41245 108-730): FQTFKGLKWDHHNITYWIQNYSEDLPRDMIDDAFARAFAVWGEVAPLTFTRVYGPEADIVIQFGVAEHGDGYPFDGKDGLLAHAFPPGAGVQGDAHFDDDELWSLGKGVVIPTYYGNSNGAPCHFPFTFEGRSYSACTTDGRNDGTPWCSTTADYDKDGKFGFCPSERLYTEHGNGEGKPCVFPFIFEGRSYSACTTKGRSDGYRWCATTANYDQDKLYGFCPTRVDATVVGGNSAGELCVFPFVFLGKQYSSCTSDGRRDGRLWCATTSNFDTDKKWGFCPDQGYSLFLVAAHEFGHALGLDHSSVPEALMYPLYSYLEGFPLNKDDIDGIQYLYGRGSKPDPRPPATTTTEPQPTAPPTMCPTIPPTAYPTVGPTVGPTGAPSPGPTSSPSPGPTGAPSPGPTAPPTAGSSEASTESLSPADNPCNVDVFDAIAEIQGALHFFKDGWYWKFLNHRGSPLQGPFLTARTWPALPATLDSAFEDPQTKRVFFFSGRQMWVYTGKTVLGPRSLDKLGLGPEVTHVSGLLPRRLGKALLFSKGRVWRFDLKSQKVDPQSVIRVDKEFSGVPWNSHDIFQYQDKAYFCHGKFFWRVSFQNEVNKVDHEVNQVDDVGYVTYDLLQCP
# Method: (§4) This example characterized the interaction of the M0237-D02 hIgG1 with the human and mouse MMP-9. The Ki was measured and the inhibition mechanism was determined.
# (§5) Materials: • Substrate: Mca -KPLGL-Dap(Dnp)-AR-NH2(SEQ ID NO: 1279) (M-2350) from BACHEM (521575). A 10mM stock solution was prepared in DMSO. • Enzymes: • Human MMP-9 catalytic domain (BIOMOL, SE-244). Enzyme concentration was measured by titration with TIMP-1 (2522-104) • Mouse MMP-9 (R&D, 909-MM), APMA-activated. • M0237-D02 hIgG1 : 2517-014. Dialysed against TCN. • TCNB: 50 mM Tris/HCl, 10 mM CaCl2, 150 mM NaCl, 0.05% Brij 35, pH 7.5. • 96-well black plates from Perkin Elmer (6005270) • Spectramax M2e to measure fluorescence emission of the substrate upon hydrolysis (temperature control set at 30° C.; λexc=328 nm and λem=393 nm)
# (§6) The enzyme (final concentration=0.23 and 0.17 nM for the human and mouse MMP-9, respectively) was preincubated with various concentrations (0-50 nM) of M0237-D02 for 1 h at 30° C. The substrate was then added to a final concentration ranging from 5 to 40 μM and initial rates were recorded.
# (§7) Each data point was measured in triplicate, and initial rates were averaged.
# (§8) Averaged initial rates were plotted against the M0237-D02 concentration for each substrate concentration, and IC50's were calculated using the following equation: […]
# (§9) The IC50 values were then plotted against the substrate concentration.
# [8] = biological target: T3, Human MMP-9 catalytic domain; assay: as above; type: biochemical; details: fluorogenic peptide substrates
# Method: as §4, §5, §6, §7, §8, §9
# [9] = biological target: T3, Human MMP-9 catalytic domain; assay: Inhibition progress curves and kinetic analysis; type: biochemical; details: 25° C.; for kobs: substrate 9 μM
# Method: The kinetics of the interaction between M0237-D02 and the human MMP-9 were determined. The rates were determined using the following equation: […]
# The second order rate constant for the association of the enzyme E and the inhibitor I (kon) and the first order rate constant for the dissociation of the complex El (koff) can be calculated from inhibition progress curves obtained at different inhibitor concentrations.
# Materials: • Substrate: Mca -KPLGL-Dap(Dnp)-AR-NH2(SEQ ID NO: 1279) (M-2350) from BACHEM (521575). A 10mM stock solution was prepared in DMSO. • Human MMP-9 catalytic domain (BIOMOL, SE-244). • M0237-D02 hIgG1 : 2517-068. • All measurements were performed at 25° C. in TCNB: 50 mM Tris/HCl, 10 mM CaCl2, 150mM NaCl 0.05% Brij 35, pH 7.5. • 96-well black plates from Perkin Elmer (6005270) • Spectramax M2e to measure fluorescence emission of the substrate upon hydrolysis (λexc=328 nm and λem=393 nm)
# The enzyme (at a final concentration ranging from 1.5 to 12.3 nM), the substrate (9 μM final) and the M0237-D02 antibody were mixed, and the fluorescence was immediately recorded in order to follow the hydrolysis of the substrate. The observed inhibition rate (kobs) was obtained by analyzing the progress curves with a single exponential. The value for kon and koff were calculated from the plot of the kobs vs. the antibody concentration using the following equation: kobs=kon[I]+koff
# kobs was measured at four antibody concentrations (table below): […]
# [10] = system: gelatinolytic activity (tumoral MMP-2-9) in MCF-7 tumor sections; assay: Film in situ zymography (FIZ); type: biochemical, human; details: 500 nM, 37° C. overnight
# Method: (§10) PBS-control treated tumors were screened with M0237-D02 for gelatinase expression using the FIZ approach. The tumors tested were Colo205 and MCF-7. Briefly, frozen slides of tumpor sections were dried at room temperature and 200 μl of in situ Zymo buffer (TCNB)+20 μg/ml of gelatin quenched substrate from molecular probes was added. The slides were incubate at 37° c. overnight in the presence of M0237-D02 at 500 nM or GM6001 used as a positive control at 100 μM. The substrate was washed in MilliQ (3 times) and the mounted slides were treated with anti-Fade+Dapi mounting medium.
# [11] = system: gelatinolytic activity (tumoral MMP-2-9) in Colo205 tumor sections; assay: Film in situ zymography (FIZ); type: biochemical, human; details: 500 nM, 37° C. overnight
# Method: as §10
# [12] = Direct capture (amine coupling) of antibody on CM5 chip
# [13] = Fc capture (anti-Fc antibody surface)
# [14] = from plot of kobs vs. the antibody concentration
molecule,measurement,setting,value
B1,Binding of Pro-huMMP-9,[1],observed neither
same,Binding of Pro-huMMP-9,[1]; listed as 539A-M0166F10,~No
same,Binding of huTIMP-1,[2],No
same,Binding of Cat-huMMP-9,[3]; [12],binds
same,Binding of Cat-huMMP-9,"[3]; Direct capture (amine coupling) of antibody on CM5 chip, listed as 539A-M0166F10",Yes
same,Binding of Cat-huMMP-9,[3]; [13],binds
same,Binding of Cat-huMMP-9,"[3]; Fc capture (anti-Fc antibody surface), listed as 539A-M0166F10",Yes
same,Binding of huTIMP-1/cat-huMMP-9,[4]; Direct capture,no binding was observed
same,Binding of huTIMP-1/cat-huMMP-9,"[4]; Direct capture, listed as 539A-M0166F10",No
B2,Binding of Pro-huMMP-9,[1]; listed as 539A-M0237D02,No
same,Binding of Pro-huMMP-9,[1]; listed as M237-D02,observed neither
same,Binding of huTIMP-1,[2],No
same,Binding of Cat-huMMP-9,[3]; [12],No
same,Binding of Cat-huMMP-9,[3]; [13],could be observed only if this antibody was captured via an anti-Fc antibody
same,Binding of Cat-huMMP-9,"[3]; Fc capture (anti-Fc antibody surface), listed as 539A-M0237D02",Yes
same,Binding of huTIMP-1/cat-huMMP-9,[4]; Direct capture,No
same,Binding of huTIMP-1/cat-huMMP-9,[4]; Fc capture,no binding was observed; also recorded: cannot bind
same,Binding of huTIMP-1/cat-huMMP-9,"[4]; Fc capture, listed as 539A-M0237D02",No
same,arthritic index,[5],decreased
same,lymphocyte infiltration,[6],significantly decreased
same,neutrophil infiltration,[6],significantly decreased
same,total white blood cell infiltration,[6],significantly decreased
same,inhibition model,[7],non competitive inhibitor
same,inhibition model,[8],non competitive inhibitor
same,kobs,[9]; M0237-D02 concentration 14.4 nM,0.0013 s⁻¹
same,kobs,[9]; M0237-D02 concentration 19.2 nM,0.0019 s⁻¹
same,kobs,[9]; M0237-D02 concentration 28.8 nM,0.0024 s⁻¹
same,kobs,[9]; M0237-D02 concentration 115.2 nM,0.0086 s⁻¹
same,koff,[9]; [14],~4 10^−4 s^−1
same,kon,[9]; [14],~7 10^4 M^−1 s^−1
same,inhibition of gelatinolytic activity,[10],complete inhibition
same,inhibition of gelatinolytic activity,[11],complete inhibition
